Results taken from patent US20170052184A1 (published 2017).
Ends that are not written are not given here.

Legend:
[1] = molecular target: T1, WT1STHV biotin labeled HCV core peptide (hepatitis C virus, biotin labeled); assay: EIA; Ab 125 ng/mL captured on anti-mouse Fc; bt-peptide 500 ng/mL
T1 peptide: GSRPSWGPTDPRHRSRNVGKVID

[2] = molecular target: T2, Mut6T110S biotin labeled HCV core peptide (hepatitis C virus); assay: as above
[3] = molecular target: T3, C113T109N biotin labeled HCV core peptide (hepatitis C virus, also: biotin labeled, position not given here); assay: as above
T3 peptide: RGSRPSWGPND

[4] = molecular target: T4, Mut1T110N biotin labeled HCV core peptide (hepatitis C virus, biotin labeled); assay: as above
T4 peptide: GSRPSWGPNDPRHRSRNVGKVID

[5] = molecular target: T5, C113WT biotin labeled HCV core peptide (hepatitis C virus, also: biotin labeled, position not given here); assay: as above
T5 peptide: RGSRPSWGPTD

[6] = molecular target: T1, WT1STHV biotin labeled HCV core peptide; assay: EIA; Ab 0.977 ng/mL captured on anti-mouse Fc; bt-peptide 500 ng/mL
[7] = molecular target: T2, Mut6T110S biotin labeled HCV core …; assay: as above
[8] = molecular target: T3, C113T109N biotin labeled HCV core …; assay: as above
[9] = molecular target: T4, Mut1T110N biotin labeled HCV core …; assay: as above
[10] = molecular target: T5, C113WT biotin labeled HCV core peptide; assay: as above
[11] = molecular target: T1, WT1STHV biotin labeled HCV core peptide; assay: EIA; Ab 15.625 ng/mL captured on anti-mouse Fc; bt-peptide 500 ng/mL
[12] = molecular target: T2, Mut6T110S biotin labeled HCV core …; assay: as above
[13] = molecular target: T3, C113T109N biotin labeled HCV core …; assay: as above
[14] = molecular target: T4, Mut1T110N biotin labeled HCV core …; assay: as above
[15] = molecular target: T5, C113WT biotin labeled HCV core peptide; assay: as above
[16] = molecular target: T1, WT1STHV biotin labeled HCV core peptide; assay: EIA; Ab 62.5 ng/mL captured on anti-mouse Fc; bt-peptide 500 ng/mL
[17] = molecular target: T2, Mut6T110S biotin labeled HCV core …; assay: as above
[18] = molecular target: T3, C113T109N biotin labeled HCV core …; assay: as above
[19] = molecular target: T4, Mut1T110N biotin labeled HCV core …; assay: as above
[20] = molecular target: T5, C113WT biotin labeled HCV core peptide; assay: as above
[21] = molecular target: T2, Mut6T110S biotin labeled HCV core …; assay: EIA; Ab 250 ng/mL captured on anti-mouse Fc; bt-peptide 500 ng/mL
[22] = molecular target: T3, C113T109N biotin labeled HCV core …; assay: as above
[23] = molecular target: T1, WT1STHV biotin labeled HCV core peptide; assay: EIA; Ab 7.813 ng/mL captured on anti-mouse Fc; bt-peptide 500 ng/mL
[24] = molecular target: T2, Mut6T110S biotin labeled HCV core …; assay: as above
[25] = molecular target: T3, C113T109N biotin labeled HCV core …; assay: as above
[26] = molecular target: T4, Mut1T110N biotin labeled HCV core …; assay: as above
[27] = molecular target: T5, C113WT biotin labeled HCV core peptide; assay: as above

B1: HCV Neo4 monoclonal antibody (antibody, V domains shown)
VH: QIQLKESGPAVIKPSQSLSLTCIVSGFSITSSVYCWQWIRQPPGKGLEWMGRICYDGSVDYSPSITSRGTISRDTSLNKVFFQLSSVTNEDTAMYYCSRENHIDYYDTTYPSFDVWGAGTTVTVSS
VL: DIVLTQSPASLIVSLGQRATISCRASKSVNEYGYTYMHWYQQKPGLPPKLLIYLASNLDSGVPARFSGSGSGTDFTLNIHPVEEEDAATYYCQHSRELPYTFGGGTKLEIKR
signal at 492 nm [1]: 1.93 OD 492 nm | signal at 492 nm [2]: 1.27 OD 492 nm | signal at 492 nm [3]: 0.0858 OD 492 nm | signal at 492 nm [4]: 0.204 OD 492 nm | signal at 492 nm [5]: 0.0599 OD 492 nm | signal at 492 nm [6]: 0.22 OD 492 nm | signal at 492 nm [7]: 0.0644 OD 492 nm | signal at 492 nm [8]: 0.0784 OD 492 nm | signal at 492 nm [9]: 0.0619 OD 492 nm | signal at 492 nm [10]: 0.0584 OD 492 nm | signal at 492 nm [11]: 1.42 OD 492 nm | signal at 492 nm [12]: 0.25 OD 492 nm | signal at 492 nm [13]: 0.0736 OD 492 nm | signal at 492 nm [14]: 0.0771 OD 492 nm | signal at 492 nm [15]: 0.0697 OD 492 nm | signal at 492 nm [16]: 1.85 OD 492 nm | signal at 492 nm [17]: 1.11 OD 492 nm | signal at 492 nm [18]: 0.111 OD 492 nm | signal at 492 nm [19]: 0.139 OD 492 nm | signal at 492 nm [20]: 0.0626 OD 492 nm | signal at 492 nm [21]: 1.15 OD 492 nm | signal at 492 nm [22]: 0.111 OD 492 nm | signal at 492 nm [23]: 1.04 OD 492 nm | signal at 492 nm [24]: 0.132 OD 492 nm | signal at 492 nm [25]: 0.0751 OD 492 nm | signal at 492 nm [26]: 0.0729 OD 492 nm | signal at 492 nm [27]: 0.0731 OD 492 nm
